According to patent publication US20190002511:

What was measured:
[1] = test system: avathrin (Amblyomma variegatum thrombin inhibitor)
Sequence of avathrin (Amblyomma variegatum thrombin inhibitor) (chain, as listed by the source): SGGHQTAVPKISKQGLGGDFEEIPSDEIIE

## human α-thrombin (recombinant)
β-avathrin
Sequence of β-avathrin (chain, as listed by the source): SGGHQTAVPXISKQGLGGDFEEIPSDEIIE
  cleavage by thrombin: it was not cleaved by thrombin for up to 72 h
ultravariegin
Sequence of ultravariegin (chain, as listed by the source): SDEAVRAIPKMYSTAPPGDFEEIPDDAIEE
  time to complete cleavage by thrombin: At 18 h, ultravariegin was completely cleaved
[1]
  time to complete cleavage by thrombin (30:1 peptide to enzyme): avathrin was completely cleaved at ~10 h
Avathrin K10R
  time to complete cleavage by thrombin: resulting in complete cleavage within 3 h
